Experimental data reported in the RNAGym collection of RNA variant scans (doi:10.7554/elife.90254).

B1: LINE1-full (parent)
chain: UACGUAGGUGGUUUUCCCCUGAUAGUGCUAAGGGGGCCUGGAAGUUUGGACUGGGCAGAGCUCAACACAGCGUGGCAAAGUGGCUGUGGCUAGACUGCCUCUCUGGAUUCCUCGUCACUCAGCAGGGCAUCUCUGAGAGAAAUGCC

Variants of: B1
Assay: self-cleavage, relative activity (ratio to wild type); higher = more cleavage; in vitro, sequencing; the parent is a self-cleaving ribozyme

Variant | self-cleavage
C19U G75A | 1.11
C16U U112C | 1.71
C17U A140G | 1.02
C17A U134C | 1.11
C17U A138C | 1.12
C16U U119A | 1.17
C18A U115G | 0.99
C17U C131A | 1.58
C19U C116U | 0.9
C18A C123U | 1.31
C17U | 1.09
C17A | 1.27
C17G | 0.91
C19A A107G | 1
C16U U39C | 1.35
C18U U73A | 1.78
C18U U73C | 1.53
C18U A117G | 1.72
C19U G72C | 1.31
C19U G72A | 1.19
C16U U62C | 0.09
C18U U62C | 0.08
C19U G34A | 0.75
C19A U102C | 1.76

Variant | self-cleavage
C17G U52C | 1.22
C19A A136U | 0.59
C18U C113U | 0.75
C19U A77G | 1.68
C19A U46C | 1.22
C18A A69C | 0.13
C19U G40A | 1
C18U A142G | 1.27
C18A G89A | 0.05
C17A G35A | 0.81
C17A G70U | 0.13
C18U A22U | 0.9
C18U A129U | 0.56
C17U U81A | 1.53
C19U U29C | 1.37
C18A G34A | 1.01
C16U U132A | 1.41
C19U A140G | 0.92
C19U A140U | 0.82
C18U A24G | 1.01
C18A U73C | 1.23
C19U A22U | 1.11
C19A A69G | 0.42
C19U G48A | 0.72

Variant | self-cleavage
C19U A31U | 1.35
C19A U52C | 0.51
C18U U104C | 0.23
C16U U143A | 0.86
C17U U104A | 0.95
C18A A94G | 0.22
C18U U115C | 1.49
C19U A59G | 0.03
C19A U39A | 2.04
C16U U87A | 0.05
C17U A59U | 0.51
C18U U87A | 0.08
C16U U104A | 1.12
C17U U52G | 1.41
C16U U108A | 1.14
C17A A59U | 0.69
C17A U132A | 1.17
C19U C120U | 1.25
C17G A59U | 0.55
C19U A64G | 0.25
C17U U20G | 0.57
C19G A43G | 0.31
C18U U109A | 0.9
C18U A69G | 0.29

Variant | self-cleavage
C17U A124G | 0.47
C19U A78G | 1.24
C19G A31G | 0.73
C19U A42C | 0.69
C19U G93A | 0.07
C19A U91C | 0.46
C18A A57G | 1.29
C19G U62A | 0.03
C18A U109A | 1.71
C17U A141G | 0
C19U G105U | 1.55
C19A U85A | 0.14
C17U U96C | 0.1
C19G U85C | 0.24
C17A A79U | 0.87
C19U A94G | 0.29
C19U A94U | 0.14
C19U U20C | 0.93
C17A A142C | 1.9
C18U U81C | 0.84
C19U C123U | 1.58
C18U A124U | 1.27
C18A A129G | 1.42
C19U U47A | 0.69

Variant | self-cleavage
C19U C133A | 0.59
C17G U143C | 1.09
C19U A57G | 0.88
C19U A57U | 0.13
C18U U143C | 1.11
C19A A142U | 1.36
C17U U143G | 1.43
C19U G58U | 0.09
C19U U23C | 0.79
C19U U23A | 1.1
C18A U46C | 1.65
C19G A117U | 1.69
C19G A78G | 1.24
C19U A50G | 0.77
C17U U132C | 0.95
C19A U112C | 1.55
C19A U112G | 0.85
C18A G36A | 1.12
C18A G88U | 0.12
C19G C56U | 0.22
C17G U115C | 0.84
C17U U112C | 1.49
C17U U112A | 0.9
C17U U23C | 0.68

Variant | self-cleavage
C17U U23G | 1.11
C19U A24U | 1
C16U C131U | 1.8
C19A U109A | 1.58
C17U U26C | 0.6
C19U A79U | 1.47
C19U A79G | 0.97
C19U A43G | 0.62
C18U U85C | 0.12
C18U G139U | 1.11
C16U A142G | 0.96
C19A U62A | 0.05
C17U U29C | 0.81
C18U U52A | 1.54
C18U A67G | 0.44
C19A U100A | 0.51
C19A U100C | 0.9
C19U A124G | 0.88
C19U A136U | 1.41
C17U A30G | 1.44
C18U U39C | 0.82
C16U U100C | 1.02
C18A U119C | 1.49
C18A U62C | 0.11

Variant | self-cleavage
C19U U39C | 0.65
C19U U39A | 1.07
C19U A67G | 0
C19U A121C | 1.02
C17U A94U | 0.17
C17U A94G | 0.31
C17A A42G | 1.13
C19U U26A | 0.95
C19U U26C | 1.32
C17A U45C | 1.35
C19U A117G | 1.49
C16U U52C | 1.47
C19A U134C | 0.67
C19A A57G | 1.11
C19U G36C | 0.82
C17U G72A | 1.05
C19U A138G | 1.01
C19U A138U | 1.24
C19U U52A | 1.28
C19U C76U | 1.64
C19U A142G | 1.06
C16U G32A | 1
C18A A77U | 0.97
